The target in this experiment is Taxol-stabilised microtubules of Rhodamine-labelled tubulin (porcine) (UniProt P02550). Kind of experiment: confocal microscopy of purified proteins; Taxol-stabilised MT seeds incubated with GFP–PLK4 (1 µM) for 15 min at 37°C, mounted on a slide; condensates associated with MTs counted (N=3, n=100 spots/condition).

B1: GFP-tagged Xenopus PLK4 (wild type) (enzyme)
chain: MAGSIGERREDFKVLNLLGKGSFACVYRAQSINTGIDVAIKMIDKKAMQKVGMVQRVRNEVEIHCQLKHPSILELYNYFEDSNYVYLILEMCHNGEVNRYLKNRKKPFAEDEARHFMHQIVTGMLYLHSHGILHRDLTLSNLLLSSDMNIKIADFGLATQLKMPNEKHFTMCGTPNYIAPEIATRSAHGLESDVWSLGCMLYTFLVGRPPFDTDTVKNTLNKIVLADYEMPDFVSREAKDLIFQLLRKNPADRLSLSSVLDHAFMTGFSNVQSKVMGAVEDSMDSGHATISTGFTGSSGVSISGRFQEKRILSGPSLPNKVNIFQFKDKHPTERSNGGSFHNTQRENNDFSEGNGRKPVACEDRPHSRYLRRAHSSDRSGTSQSQTYAKPSSYSERCHSVEMLAKPTHLKGYRTSSPPNSYGDIPQMFTDERSLERHTSPPVKEKTPSEFMGPAKQTAPRSNDKAETVQQWFGAMQLNGQFKNTPDTSSVSNMGGDFYSQQATQNGAPQYAWNDVKRKKNTDSSIESVLLGIKKNPGTGQRKAEKSQFGEQSKSRVPQQAFGSSTLRSIISPLNAERLKPIRQKTKNAVVSILESGEVCMEFLKEQNSQERVKEVLRISCDGNLIYVYHPNEGKGFPLVDRPPSPPENRLSYTFDSLPEKYWKKYQYAAKFIKLVRSKTPKVTYYTRYAKCMLMENSPTADVEVCFYDGAKIHKTSDVIRVIEKSGRSYTLEGSRLSTLSDEVRSYLDHANESHCVCLSLESAINTEEKKGENISLFPITFGRRPALAESPKTQPTPSVDSARERKEEQSYVNRVLHGSAASPPQMPNLNPSLISYDGSVFSATTVQPSPTSNIHNTPDHAQVLKSVFVENVGWASQLNSGAVWVQFNDGSQLVVQPGVSSIIYTAPNGQITRHGENDKLPEYIKSKLQCLSSILMLFASSSSR
Regarding B1, the percent of PLK4 condensates associated with MTs stood at 95.4%.

The values above are taken from PMC6398482.
